Laboratory results as given in PMC7136269, “CXXC5 as an unmethylated CpG dinucleotide binding protein contributes to estrogen-mediated cellular proliferation”.

B1: CG DNA (dsDNA)
DNA 1: GTGATACCGGATCAGT
DNA 2: ACTGATCCGGTATCAC
B2: mCG DNA (dsDNA)
DNA 1: GTGATACCGGATCAGT
DNA 2: ACTGATCCGGTATCAC
modifications: 5-methyl-C at position 8 (GTGATACmCGGATCAGT); lower strand presumably also methylated at its central CpG
B3: AT DNA (dsDNA)
DNA 1: GTGATACATGATCAGT
DNA 2: ACTGATCATGTATCAC
B4: CG DNA, distinct flanks (dsDNA)
DNA 1: GAGAGACCGGTCTCTC
DNA 2: GAGAGACCGGTCTCTC
B5: mCG DNA, distinct flanks (dsDNA)
DNA 1: GAGAGACCGGTCTCTC
DNA 2: GAGAGACCGGTCTCTC
modifications: 5-methyl-C at position 8 (central mCG; self-complementary, so both strands)
B6: AT DNA, distinct flanks (dsDNA)
DNA 1: GAGAGACATGTCTCTC
DNA 2: GAGAGACATGTCTCTC

What was measured:
FL-CXXC5 [1] = target: T1, FL-CXXC5 (human, UniProt Q7LFL8 1-322); assay: ITC; ITC: 10 uM protein, 300 uM DNA, 25 C, VP-ITC, one-site fit; DNA annealed in 20 mM Tris pH 7.5, 150 mM NaCl; protein eluted in 20 mM Tris pH 7.5, 150 mM NaCl, 1; details: protein: recombinant, tags: 6xHis removed by TEV (pET28a-MHL), blunt
T1 sequence: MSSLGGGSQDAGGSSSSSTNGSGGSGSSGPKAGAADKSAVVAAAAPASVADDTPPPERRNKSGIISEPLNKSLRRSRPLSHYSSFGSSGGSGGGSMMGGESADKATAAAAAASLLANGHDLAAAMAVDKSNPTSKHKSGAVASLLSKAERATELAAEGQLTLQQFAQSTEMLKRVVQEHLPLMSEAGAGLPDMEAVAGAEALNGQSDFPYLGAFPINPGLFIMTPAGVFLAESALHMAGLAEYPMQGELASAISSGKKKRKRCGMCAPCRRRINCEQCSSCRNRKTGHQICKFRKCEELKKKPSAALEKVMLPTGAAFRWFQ

[2] = target: T2, CXXC-D (CXXC domain of CXXC5) (human, UniProt Q7LFL8 250-309); assay: as above; details: protein: recombinant; tags: 6xHis removed by TEV (pET28a-MHL); blunt
T2 sequence: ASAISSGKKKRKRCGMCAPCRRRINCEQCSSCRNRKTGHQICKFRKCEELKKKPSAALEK

FL-CXXC5 [3] = target: T1, FL-CXXC5; assay: ITC; similar affinity to N1; ITC: 10 uM protein, 300 uM DNA, 25 C, VP-ITC, one-site fit; DNA annealed in 20 mM Tris pH 7.5, 150 mM NaCl; protein eluted in 20 mM Tris pH 7.5, 150 mM NaCl, 1; details: protein: recombinant; tags: 6xHis removed by TEV (pET28a-MHL); blunt; self-complementary

Binder	binding result (FL-CXXC5 [1])	binding result (FL-CXXC5 [1]; self-complementary)	further results
B1	binds	–	binding result [2]: binds
B2	no binding	–	–
B3	no binding	–	–
B4	–	–	binding result (FL-CXXC5 [3]): binds
B5	–	no binding	–
B6	–	no binding	–
